The MegaScale stability set (Tsuboyama et al. 2023)

B1: 2K2A (parent)
chain: ELREAFRLYDKEGNGYISTDVMREILAELDETLSSEDLDAMIDEIDADGSGTVDFEEFMGVMT

Variants of: B1
Assay: folding stability dG (cDNA display proteolysis); higher = more stable
Conditions: PBS, room temperature

Variant	folding stability dG [kcal/mol]
ELKEAFRLYDKEGNGYISTDVMREILAELDETLSSEDLDAMIDEIDADGSGTVDFEEFMGVMT [R3K]	1.86
ELLEAFRLYDKEGNGYISTDVMREILAELDETLSSEDLDAMIDEIDADGSGTVDFEEFMGVMT [R3L]	2.2
ELMEAFRLYDKEGNGYISTDVMREILAELDETLSSEDLDAMIDEIDADGSGTVDFEEFMGVMT [R3M]	1.93
ELNEAFRLYDKEGNGYISTDVMREILAELDETLSSEDLDAMIDEIDADGSGTVDFEEFMGVMT [R3N]	1.34
ELPEAFRLYDKEGNGYISTDVMREILAELDETLSSEDLDAMIDEIDADGSGTVDFEEFMGVMT [R3P]	0.63
ELQEAFRLYDKEGNGYISTDVMREILAELDETLSSEDLDAMIDEIDADGSGTVDFEEFMGVMT [R3Q]	1.71
ELSEAFRLYDKEGNGYISTDVMREILAELDETLSSEDLDAMIDEIDADGSGTVDFEEFMGVMT [R3S]	1.42
ELTEAFRLYDKEGNGYISTDVMREILAELDETLSSEDLDAMIDEIDADGSGTVDFEEFMGVMT [R3T]	1.44
ELVEAFRLYDKEGNGYISTDVMREILAELDETLSSEDLDAMIDEIDADGSGTVDFEEFMGVMT [R3V]	1.77
ELWEAFRLYDKEGNGYISTDVMREILAELDETLSSEDLDAMIDEIDADGSGTVDFEEFMGVMT [R3W]	2.29
ELYEAFRLYDKEGNGYISTDVMREILAELDETLSSEDLDAMIDEIDADGSGTVDFEEFMGVMT [R3Y]	2.48
ELRAAFRLYDKEGNGYISTDVMREILAELDETLSSEDLDAMIDEIDADGSGTVDFEEFMGVMT [E4A]	1.77
ELRCAFRLYDKEGNGYISTDVMREILAELDETLSSEDLDAMIDEIDADGSGTVDFEEFMGVMT [E4C]	2.85
ELRDAFRLYDKEGNGYISTDVMREILAELDETLSSEDLDAMIDEIDADGSGTVDFEEFMGVMT [E4D]	2
ELRFAFRLYDKEGNGYISTDVMREILAELDETLSSEDLDAMIDEIDADGSGTVDFEEFMGVMT [E4F]	1.32
ELRGAFRLYDKEGNGYISTDVMREILAELDETLSSEDLDAMIDEIDADGSGTVDFEEFMGVMT [E4G]	0.935
ELRHAFRLYDKEGNGYISTDVMREILAELDETLSSEDLDAMIDEIDADGSGTVDFEEFMGVMT [E4H]	1.36
ELRIAFRLYDKEGNGYISTDVMREILAELDETLSSEDLDAMIDEIDADGSGTVDFEEFMGVMT [E4I]	1.43
ELRKAFRLYDKEGNGYISTDVMREILAELDETLSSEDLDAMIDEIDADGSGTVDFEEFMGVMT [E4K]	1.64
ELRLAFRLYDKEGNGYISTDVMREILAELDETLSSEDLDAMIDEIDADGSGTVDFEEFMGVMT [E4L]	1.53
ELRMAFRLYDKEGNGYISTDVMREILAELDETLSSEDLDAMIDEIDADGSGTVDFEEFMGVMT [E4M]	1.39
ELRNAFRLYDKEGNGYISTDVMREILAELDETLSSEDLDAMIDEIDADGSGTVDFEEFMGVMT [E4N]	1.4

Variant	folding stability dG [kcal/mol]
ELRPAFRLYDKEGNGYISTDVMREILAELDETLSSEDLDAMIDEIDADGSGTVDFEEFMGVMT [E4P]	0.889
ELRQAFRLYDKEGNGYISTDVMREILAELDETLSSEDLDAMIDEIDADGSGTVDFEEFMGVMT [E4Q]	1.46
ELRRAFRLYDKEGNGYISTDVMREILAELDETLSSEDLDAMIDEIDADGSGTVDFEEFMGVMT [E4R]	1.6
ELRSAFRLYDKEGNGYISTDVMREILAELDETLSSEDLDAMIDEIDADGSGTVDFEEFMGVMT [E4S]	1.24
ELRTAFRLYDKEGNGYISTDVMREILAELDETLSSEDLDAMIDEIDADGSGTVDFEEFMGVMT [E4T]	1.23
ELRVAFRLYDKEGNGYISTDVMREILAELDETLSSEDLDAMIDEIDADGSGTVDFEEFMGVMT [E4V]	1.39
ELRWAFRLYDKEGNGYISTDVMREILAELDETLSSEDLDAMIDEIDADGSGTVDFEEFMGVMT [E4W]	1.41
ELRYAFRLYDKEGNGYISTDVMREILAELDETLSSEDLDAMIDEIDADGSGTVDFEEFMGVMT [E4Y]	1.43
ELRECFRLYDKEGNGYISTDVMREILAELDETLSSEDLDAMIDEIDADGSGTVDFEEFMGVMT [A5C]	3.22
ELREDFRLYDKEGNGYISTDVMREILAELDETLSSEDLDAMIDEIDADGSGTVDFEEFMGVMT [A5D]	1.18
ELREEFRLYDKEGNGYISTDVMREILAELDETLSSEDLDAMIDEIDADGSGTVDFEEFMGVMT [A5E]	1.21
ELREFFRLYDKEGNGYISTDVMREILAELDETLSSEDLDAMIDEIDADGSGTVDFEEFMGVMT [A5F]	2.74
ELREGFRLYDKEGNGYISTDVMREILAELDETLSSEDLDAMIDEIDADGSGTVDFEEFMGVMT [A5G]	1
ELREHFRLYDKEGNGYISTDVMREILAELDETLSSEDLDAMIDEIDADGSGTVDFEEFMGVMT [A5H]	1.76
ELREIFRLYDKEGNGYISTDVMREILAELDETLSSEDLDAMIDEIDADGSGTVDFEEFMGVMT [A5I]	2.78
ELREKFRLYDKEGNGYISTDVMREILAELDETLSSEDLDAMIDEIDADGSGTVDFEEFMGVMT [A5K]	2.72
ELRELFRLYDKEGNGYISTDVMREILAELDETLSSEDLDAMIDEIDADGSGTVDFEEFMGVMT [A5L]	3
ELREMFRLYDKEGNGYISTDVMREILAELDETLSSEDLDAMIDEIDADGSGTVDFEEFMGVMT [A5M]	2.91
ELRENFRLYDKEGNGYISTDVMREILAELDETLSSEDLDAMIDEIDADGSGTVDFEEFMGVMT [A5N]	1.13
ELREPFRLYDKEGNGYISTDVMREILAELDETLSSEDLDAMIDEIDADGSGTVDFEEFMGVMT [A5P]	0.29
ELREQFRLYDKEGNGYISTDVMREILAELDETLSSEDLDAMIDEIDADGSGTVDFEEFMGVMT [A5Q]	2.3
ELRERFRLYDKEGNGYISTDVMREILAELDETLSSEDLDAMIDEIDADGSGTVDFEEFMGVMT [A5R]	2.66

Variant	folding stability dG [kcal/mol]
ELRESFRLYDKEGNGYISTDVMREILAELDETLSSEDLDAMIDEIDADGSGTVDFEEFMGVMT [A5S]	1.39
ELRETFRLYDKEGNGYISTDVMREILAELDETLSSEDLDAMIDEIDADGSGTVDFEEFMGVMT [A5T]	2.14
ELREVFRLYDKEGNGYISTDVMREILAELDETLSSEDLDAMIDEIDADGSGTVDFEEFMGVMT [A5V]	2.6
ELREWFRLYDKEGNGYISTDVMREILAELDETLSSEDLDAMIDEIDADGSGTVDFEEFMGVMT [A5W]	2.97
ELREYFRLYDKEGNGYISTDVMREILAELDETLSSEDLDAMIDEIDADGSGTVDFEEFMGVMT [A5Y]	2.59
ELREAARLYDKEGNGYISTDVMREILAELDETLSSEDLDAMIDEIDADGSGTVDFEEFMGVMT [F6A]	0.316
ELREACRLYDKEGNGYISTDVMREILAELDETLSSEDLDAMIDEIDADGSGTVDFEEFMGVMT [F6C]	1.79
ELREADRLYDKEGNGYISTDVMREILAELDETLSSEDLDAMIDEIDADGSGTVDFEEFMGVMT [F6D]	0.525
ELREAERLYDKEGNGYISTDVMREILAELDETLSSEDLDAMIDEIDADGSGTVDFEEFMGVMT [F6E]	0.086
ELREAGRLYDKEGNGYISTDVMREILAELDETLSSEDLDAMIDEIDADGSGTVDFEEFMGVMT [F6G]	-0.227
ELREAHRLYDKEGNGYISTDVMREILAELDETLSSEDLDAMIDEIDADGSGTVDFEEFMGVMT [F6H]	0.31
ELREAIRLYDKEGNGYISTDVMREILAELDETLSSEDLDAMIDEIDADGSGTVDFEEFMGVMT [F6I]	0.623
ELREAKRLYDKEGNGYISTDVMREILAELDETLSSEDLDAMIDEIDADGSGTVDFEEFMGVMT [F6K]	0.192
ELREALRLYDKEGNGYISTDVMREILAELDETLSSEDLDAMIDEIDADGSGTVDFEEFMGVMT [F6L]	0.489
ELREAMRLYDKEGNGYISTDVMREILAELDETLSSEDLDAMIDEIDADGSGTVDFEEFMGVMT [F6M]	0.623
ELREANRLYDKEGNGYISTDVMREILAELDETLSSEDLDAMIDEIDADGSGTVDFEEFMGVMT [F6N]	0.361
ELREAPRLYDKEGNGYISTDVMREILAELDETLSSEDLDAMIDEIDADGSGTVDFEEFMGVMT [F6P]	0.281
ELREAQRLYDKEGNGYISTDVMREILAELDETLSSEDLDAMIDEIDADGSGTVDFEEFMGVMT [F6Q]	0.462
ELREARRLYDKEGNGYISTDVMREILAELDETLSSEDLDAMIDEIDADGSGTVDFEEFMGVMT [F6R]	0.468
ELREASRLYDKEGNGYISTDVMREILAELDETLSSEDLDAMIDEIDADGSGTVDFEEFMGVMT [F6S]	0.268
ELREATRLYDKEGNGYISTDVMREILAELDETLSSEDLDAMIDEIDADGSGTVDFEEFMGVMT [F6T]	0.266
ELREAVRLYDKEGNGYISTDVMREILAELDETLSSEDLDAMIDEIDADGSGTVDFEEFMGVMT [F6V]	0.529

Variant	folding stability dG [kcal/mol]
ELREAWRLYDKEGNGYISTDVMREILAELDETLSSEDLDAMIDEIDADGSGTVDFEEFMGVMT [F6W]	2.18
ELREAYRLYDKEGNGYISTDVMREILAELDETLSSEDLDAMIDEIDADGSGTVDFEEFMGVMT [F6Y]	0.586
ELREAFALYDKEGNGYISTDVMREILAELDETLSSEDLDAMIDEIDADGSGTVDFEEFMGVMT [R7A]	2.09
ELREAFCLYDKEGNGYISTDVMREILAELDETLSSEDLDAMIDEIDADGSGTVDFEEFMGVMT [R7C]	2.22
ELREAFDLYDKEGNGYISTDVMREILAELDETLSSEDLDAMIDEIDADGSGTVDFEEFMGVMT [R7D]	1.81
ELREAFELYDKEGNGYISTDVMREILAELDETLSSEDLDAMIDEIDADGSGTVDFEEFMGVMT [R7E]	1.8
ELREAFFLYDKEGNGYISTDVMREILAELDETLSSEDLDAMIDEIDADGSGTVDFEEFMGVMT [R7F]	1.61
ELREAFGLYDKEGNGYISTDVMREILAELDETLSSEDLDAMIDEIDADGSGTVDFEEFMGVMT [R7G]	1.64
ELREAFHLYDKEGNGYISTDVMREILAELDETLSSEDLDAMIDEIDADGSGTVDFEEFMGVMT [R7H]	1.72
ELREAFILYDKEGNGYISTDVMREILAELDETLSSEDLDAMIDEIDADGSGTVDFEEFMGVMT [R7I]	1.93
ELREAFKLYDKEGNGYISTDVMREILAELDETLSSEDLDAMIDEIDADGSGTVDFEEFMGVMT [R7K]	2.12
ELREAFLLYDKEGNGYISTDVMREILAELDETLSSEDLDAMIDEIDADGSGTVDFEEFMGVMT [R7L]	1.93
ELREAFMLYDKEGNGYISTDVMREILAELDETLSSEDLDAMIDEIDADGSGTVDFEEFMGVMT [R7M]	2.12
ELREAFNLYDKEGNGYISTDVMREILAELDETLSSEDLDAMIDEIDADGSGTVDFEEFMGVMT [R7N]	2.06
ELREAFPLYDKEGNGYISTDVMREILAELDETLSSEDLDAMIDEIDADGSGTVDFEEFMGVMT [R7P]	0.375
ELREAFQLYDKEGNGYISTDVMREILAELDETLSSEDLDAMIDEIDADGSGTVDFEEFMGVMT [R7Q]	1.96
ELREAFSLYDKEGNGYISTDVMREILAELDETLSSEDLDAMIDEIDADGSGTVDFEEFMGVMT [R7S]	1.97
ELREAFTLYDKEGNGYISTDVMREILAELDETLSSEDLDAMIDEIDADGSGTVDFEEFMGVMT [R7T]	1.75
ELREAFVLYDKEGNGYISTDVMREILAELDETLSSEDLDAMIDEIDADGSGTVDFEEFMGVMT [R7V]	1.62
